Consider four molecules from patent US20240269235A1 (Gilead, published 2024).

The target in test [1] is T1, IL-2Rβγ heterodimer, custom biotinylated Fc fusion protein (human IL-2Rβ 27-240-Fc-FLAG / human IL-2Rγ … (human, site-specific biotinylation at the AviTag)).
T1 construct: Extracellular regions fused to IgG1 knob-in-hole Fc subunits with tags; also called IL-2 receptor βγ heterodimer; Fc-IL-2Rβγ
The test can be described thus: SPR (Biacore), C1 or CM5 chip, biotinylated receptor on neutravidin. From the text: (§1) Data for binding of Fc-IL-2 variant fusion proteins to IL-2Rα, IL-2Rβ and IL-2Rβγ heterodimer were collected on a Biacore platform using either C1 or CM5 chips. Neutravidin was immobilized using standard amine coupling methods and used to capture biotinylated receptors. Commercially sourced IL-2Rα (R&D Systems Cat #: 223-2A/CF) and IL-2Rβ receptors (R&D Systems Cat #:224-2B-025/CF) were biotinylated using sulfo-NHS-LC-LC-Biotin, desalted, and then captured on the neutravidin surfaces. […] Distinct purification tags were appended to the C-terminus of each chain. A FLAG epitope tag ([…]; SEQ ID NO: 257) was added at the C-terminus of IL-2Rβ subunit, followed by C-terminal Hiss tag ([…]; SEQ ID NO: 258). An AviTag™ ([…]; SEQ ID NO: 259) motif on the IL-2Rγ subunit allowed for site-specific biotinylation of the heterodimer.
(§2) Fc IL 2 fusion protein variants, Fc protein, and Proleukin were injected at various concentrations over these surfaces. Kinetic data obtained from these injections was used to extract kₒₙ and koff to calculate KD (KD=koff/kₒₙ). Experiments were run at 25° C. in HBS-EP+ running buffer (10 mM HEPES, 150 mM NaCl, 3 mM EDTA, 0.05% Tween20, pH 7.4 with 0.1 mg/ml BSA). Data shown in Table 5 for Fc IL-2 fusion protein variants binding to the indicated IL-2R surfaces were derived from the global fitting of data obtained from 2-5 independent surfaces.
For orientation: In SPR one partner is held on a chip, and binding of the other changes the refractive index at the surface.

Test [2] concerns the target T2, IL-2Rα (recombinant IL-2 receptor α, R&D Systems Cat #: 223-2A/CF), biotinylated (human, UniProt P01589 22-213, limits assumed, biotinylated using sulfo-NHS-LC-LC-Biotin).
T2 construct: Bought reagent; also used here as the IL-2Rα partner of the in-silico analysis of PDB 2B5I (another construct); also called IL-2RA; CD25
T2 sequence (looked up): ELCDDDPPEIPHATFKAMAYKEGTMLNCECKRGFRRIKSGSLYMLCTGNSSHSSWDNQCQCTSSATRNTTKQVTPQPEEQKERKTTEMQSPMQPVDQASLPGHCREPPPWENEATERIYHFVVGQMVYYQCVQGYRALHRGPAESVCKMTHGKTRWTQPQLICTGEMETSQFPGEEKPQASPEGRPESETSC
The test is described as above.
Text: as §1, §2

The target of test [3] is T3, IL-2Rβ (recombinant IL-2 receptor β, R&D Systems Cat #:224-2B-025/CF), biotinylated (UniProt P14784 27-239, limits assumed, biotinylated using sulfo-NHS-LC-LC-Biotin).
T3 construct: Bought reagent; also called IL-2RB; CD122
T3 sequence (looked up): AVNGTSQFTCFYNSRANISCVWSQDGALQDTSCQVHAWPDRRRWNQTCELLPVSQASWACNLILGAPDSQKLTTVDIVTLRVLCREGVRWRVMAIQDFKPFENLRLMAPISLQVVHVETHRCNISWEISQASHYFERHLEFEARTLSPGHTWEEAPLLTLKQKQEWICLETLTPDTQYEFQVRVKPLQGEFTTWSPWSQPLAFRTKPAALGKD
The test is described as above.
Text: as §1, §2

The target in test [4] is T4, human IL-2Rα on Treg cells (CD3+, CD4+, CD25hi, FoxP3+) of human PBMC (human, UniProt P01589 22-272).
T4 sequence (looked up): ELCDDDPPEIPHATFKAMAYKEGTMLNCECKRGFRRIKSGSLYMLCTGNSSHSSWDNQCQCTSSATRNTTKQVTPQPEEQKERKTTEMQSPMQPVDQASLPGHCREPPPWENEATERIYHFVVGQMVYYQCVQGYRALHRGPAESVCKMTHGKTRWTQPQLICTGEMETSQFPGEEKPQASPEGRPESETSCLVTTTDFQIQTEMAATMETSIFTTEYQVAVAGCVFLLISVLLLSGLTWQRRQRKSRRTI
In words: cell-based or functional assay.

Test [5] concerns the target T5, trimeric murine IL-2 receptor (IL-2Rα, IL-2Rβ, and IL-2Rγ) on CTLL-2 cells (murine, UniProt P01590 22-268; P16297 27-539; P34902 23-369).
T5 sequence (looked up) 1: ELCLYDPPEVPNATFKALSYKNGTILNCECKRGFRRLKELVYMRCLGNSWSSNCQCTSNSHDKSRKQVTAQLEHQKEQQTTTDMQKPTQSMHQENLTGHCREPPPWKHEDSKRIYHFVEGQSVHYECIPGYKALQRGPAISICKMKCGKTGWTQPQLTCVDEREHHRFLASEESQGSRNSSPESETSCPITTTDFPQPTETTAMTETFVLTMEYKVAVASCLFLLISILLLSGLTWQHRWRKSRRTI
T5 sequence (looked up) 2: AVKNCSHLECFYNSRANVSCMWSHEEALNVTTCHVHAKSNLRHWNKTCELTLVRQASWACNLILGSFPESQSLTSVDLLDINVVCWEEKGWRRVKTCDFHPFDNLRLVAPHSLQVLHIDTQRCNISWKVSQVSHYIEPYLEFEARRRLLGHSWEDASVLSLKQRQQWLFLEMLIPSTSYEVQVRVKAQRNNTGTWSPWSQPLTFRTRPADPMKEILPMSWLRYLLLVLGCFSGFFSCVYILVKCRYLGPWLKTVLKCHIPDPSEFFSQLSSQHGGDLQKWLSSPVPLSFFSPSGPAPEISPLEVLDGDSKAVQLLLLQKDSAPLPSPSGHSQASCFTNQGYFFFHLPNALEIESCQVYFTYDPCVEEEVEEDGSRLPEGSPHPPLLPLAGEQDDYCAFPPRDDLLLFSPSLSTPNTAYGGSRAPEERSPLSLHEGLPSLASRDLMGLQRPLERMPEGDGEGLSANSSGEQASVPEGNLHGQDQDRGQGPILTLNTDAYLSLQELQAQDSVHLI
T5 sequence (looked up) 3: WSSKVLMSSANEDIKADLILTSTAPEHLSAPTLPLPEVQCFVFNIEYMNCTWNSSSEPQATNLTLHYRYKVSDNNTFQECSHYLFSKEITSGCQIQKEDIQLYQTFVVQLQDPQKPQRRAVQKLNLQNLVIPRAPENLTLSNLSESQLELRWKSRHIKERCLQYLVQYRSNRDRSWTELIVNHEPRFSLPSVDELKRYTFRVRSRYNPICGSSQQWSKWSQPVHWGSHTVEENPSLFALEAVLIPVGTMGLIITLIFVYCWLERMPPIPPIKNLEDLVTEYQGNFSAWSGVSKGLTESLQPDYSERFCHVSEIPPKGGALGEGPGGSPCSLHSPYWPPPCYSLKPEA
The test can be described thus: cell-based or functional assay.

T1 sequence (chain, as listed by the source limits assumed): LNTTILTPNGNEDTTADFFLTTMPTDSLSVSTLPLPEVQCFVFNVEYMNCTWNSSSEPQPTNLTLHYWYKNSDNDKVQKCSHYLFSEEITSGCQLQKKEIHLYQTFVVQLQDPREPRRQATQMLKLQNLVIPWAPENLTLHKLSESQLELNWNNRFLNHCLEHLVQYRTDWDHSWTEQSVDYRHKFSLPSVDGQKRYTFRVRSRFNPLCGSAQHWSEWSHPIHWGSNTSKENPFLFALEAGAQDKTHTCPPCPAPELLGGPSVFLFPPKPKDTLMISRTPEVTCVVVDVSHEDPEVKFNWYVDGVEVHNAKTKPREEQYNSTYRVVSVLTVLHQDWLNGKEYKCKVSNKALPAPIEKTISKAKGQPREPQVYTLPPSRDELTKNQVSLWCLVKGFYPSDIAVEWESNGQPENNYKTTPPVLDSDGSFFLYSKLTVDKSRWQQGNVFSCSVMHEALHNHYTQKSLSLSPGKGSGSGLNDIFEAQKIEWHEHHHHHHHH

B1: Fc-IL-2v heterodimer 81.46 (hIL-2v_Δ1-5_R38G_C125S) (Fc fusion)
chain 1: ESKYGPPCPPCPAPEAAGGPSVFLFPPKPKDTLMISRTPEVTCVVVDVSQEDPEVQFNWYVDGVEVHNAKTKPREEQFNSTYRVVSVLTVLHQDWLNGKEYKCKVSNKGLPSSIEKTISKAKGQPREPQVYTLPPSQEEMTKNQVSLWCLVKGFYPSDIAVEWESNGQPENNYKTTPPVLDSDGSFFLYSRLTVDKSRWQEGNVFSCSVMHEALHNHYTQKSLSLSLGGGGGSGGGGSGGGGSGGGGSSTKKTQLQLEHLLLDLQMILNGINNYKNPKLTGMLTFKFYMPKKATELKHLQCLEEELKPLEEVLNLAQSKNFHLRPRDLISNINVIVLELKGSETTFMCEYADETATIVEFLNRWITFSQSIISTLT
chain 2: ESKYGPPCPPCPAPEAAGGPSVFLFPPKPKDTLMISRTPEVTCVVVDVSQEDPEVQFNWYVDGVEVHNAKTKPREEQFNSTYRVVSVLTVLHQDWLNGKEYKCKVSNKGLPSSIEKTISKAKGQPREPQVYTLPPSQEEMTKNQVSLSCAVKGFYPSDIAVEWESNGQPENNYKTTPPVLDSDGSFFLVSRLTVDKSRWQEGNVFSCSVMHEALHNRFTQKSLSLSLGK
notes: hIgG4 knob-in-hole Fc heterodimer, one IL-2v on the knob chain
Regarding B1, the figures for the Kd in test [1], in test [2] and in test [3] were 0.071 nM, 685 nM and 7000 nM, respectively. In test [2], the “fold larger effect on reducing IL-2Rα affinity against R38A (heterodimer 82.46)” value came out at 6 fold. Besides, the “Treg EC50, STAT5 activation (PBMC STAT5 assay)” value (from here on “Treg EC50, STAT5 activation”) in test [4] was 0.07 nM. Further, the “STAT5 activation of CTLL-2 cells, EC50” value in test [5] came out at 0.02 nM.

B2: Fc heterodimer without a fused IL-2 moiety (heterodimer name: 260:261) (other)
chain 1: ESKYGPPCPPCPAPEAAGGPSVFLFPPKPKDTLMISRTPEVTCVVVDVSQEDPEVQFNWYVDGVEVHNAKTKPREEQFNSTYRVVSVLTVLHQDWLNGKEYKCKVSNKGLPSSIEKTISKAKGQPREPQVYTLPPSQEEMTKNQVSLWCLVKGFYPSDIAVEWESNGQPENNYKTTPPVLDSDGSFFLYSRLTVDKSRWQEGNVFSCSVMHEALHNHYTQKSLSLSLGK
chain 2: ESKYGPPCPPCPAPEAAGGPSVFLFPPKPKDTLMISRTPEVTCVVVDVSQEDPEVQFNWYVDGVEVHNAKTKPREEQFNSTYRVVSVLTVLHQDWLNGKEYKCKVSNKGLPSSIEKTISKAKGQPREPQVYTLPPSQEEMTKNQVSLSCAVKGFYPSDIAVEWESNGQPENNYKTTPPVLDSDGSFFLVSRLTVDKSRWQEGNVFSCSVMHEALHNRFTQKSLSLSLGK
notes: negative control; also called control Fc protein with no IL-2 fusion
For the molecule B2, the binding result in test [1], in test [2] and in test [3] was “no binding” each time.

B3: Fc-IL-2v heterodimer 86.46 (hIL-2v_Δ1-5_F42A_C125S) (Fc fusion)
chain 1: ESKYGPPCPPCPAPEAAGGPSVFLFPPKPKDTLMISRTPEVTCVVVDVSQEDPEVQFNWYVDGVEVHNAKTKPREEQFNSTYRVVSVLTVLHQDWLNGKEYKCKVSNKGLPSSIEKTISKAKGQPREPQVYTLPPSQEEMTKNQVSLWCLVKGFYPSDIAVEWESNGQPENNYKTTPPVLDSDGSFFLYSRLTVDKSRWQEGNVFSCSVMHEALHNHYTQKSLSLSLGGGGGSGGGGSGGGGSGGGGSSTKKTQLQLEHLLLDLQMILNGINNYKNPKLTRMLTAKFYMPKKATELKHLQCLEEELKPLEEVLNLAQSKNFHLRPRDLISNINVIVLELKGSETTFMCEYADETATIVEFLNRWITFSQSIISTLT
chain 2: ESKYGPPCPPCPAPEAAGGPSVFLFPPKPKDTLMISRTPEVTCVVVDVSQEDPEVQFNWYVDGVEVHNAKTKPREEQFNSTYRVVSVLTVLHQDWLNGKEYKCKVSNKGLPSSIEKTISKAKGQPREPQVYTLPPSQEEMTKNQVSLSCAVKGFYPSDIAVEWESNGQPENNYKTTPPVLDSDGSFFLVSRLTVDKSRWQEGNVFSCSVMHEALHNRFTQKSLSLSLGK
notes: as for B1
Consider B3, for which the Kd was 0.094 nM in test [1], 2000 nM in test [2] and 7100 nM in test [3]. In addition, the “Treg EC50, STAT5 activation” value in test [4] amounted to 0.3 nM. Moreover, in test [5], the “STAT5 activation of CTLL-2 cells, EC50” value was 1 nM.

B4: Fc-IL-2v heterodimer 83.46 (hIL-2v_Δ1-5_T41G_C125S) (Fc fusion)
chain 1: ESKYGPPCPPCPAPEAAGGPSVFLFPPKPKDTLMISRTPEVTCVVVDVSQEDPEVQFNWYVDGVEVHNAKTKPREEQFNSTYRVVSVLTVLHQDWLNGKEYKCKVSNKGLPSSIEKTISKAKGQPREPQVYTLPPSQEEMTKNQVSLWCLVKGFYPSDIAVEWESNGQPENNYKTTPPVLDSDGSFFLYSRLTVDKSRWQEGNVFSCSVMHEALHNHYTQKSLSLSLGGGGGSGGGGSGGGGSGGGGSSTKKTQLQLEHLLLDLQMILNGINNYKNPKLTRMLGFKFYMPKKATELKHLQCLEEELKPLEEVLNLAQSKNFHLRPRDLISNINVIVLELKGSETTFMCEYADETATIVEFLNRWITFSQSIISTLT
chain 2: ESKYGPPCPPCPAPEAAGGPSVFLFPPKPKDTLMISRTPEVTCVVVDVSQEDPEVQFNWYVDGVEVHNAKTKPREEQFNSTYRVVSVLTVLHQDWLNGKEYKCKVSNKGLPSSIEKTISKAKGQPREPQVYTLPPSQEEMTKNQVSLSCAVKGFYPSDIAVEWESNGQPENNYKTTPPVLDSDGSFFLVSRLTVDKSRWQEGNVFSCSVMHEALHNRFTQKSLSLSLGK
notes: as for B1
Regarding B4, the Kd in test [1] is 0.15 nM; in test [2], 29 nM; in test [3], 7300 nM. Besides, the “Treg EC50, STAT5 activation” value in test [4] was under 0.001 nM. Further, in test [5], the “STAT5 activation of CTLL-2 cells, EC50” value was found to be 0.04 nM.

As usually defined, the Kd is the constant that tells how readily two partners part at equilibrium.
